The assay addresses Non-structural protein 15 (Nsp15) from SARS-CoV-2 (SARS-CoV-2). Briefly: SEC. Background: In gel filtration, larger molecules generally elute earlier.

For orientation: stoichiometry N means the number of molecules, sites or subunits per partner or assembly. “Non-structural protein 15 (Nsp15) from SARS-CoV-2 (enzyme)” returned a stoichiometry N of 6.

(Values after PMC11602132.)
